From the RNAGym collection of RNA variant scans (doi:10.7554/elife.80360)

B1: Hairpin Ribozyme (parent)
chain: GUCCUCUUUCACGUGCGCGUGAAAGAGAGAAGUGAACCAGAGAAACACACGUUGUGGUAUAUUACCUGGUA

Variants of: B1
Assay: self-cleavage, relative activity (ratio to wild type); higher = more cleavage; co-transcriptional

Variant | self-cleavage
C3A A23G | 0.613
C3A A24C | 0.775
C3A A26U | 0.653
C3A A28U | 0.689
C3A A30U | 0.16
C3A A31C | 0.144
C3A A31U | 0.155
C3A A36G | 0.712
C3A A36U | 0.319
C3A A41G | 0.7
C3A A47U | 0.112
C3A A49U | 0.0975
C3A A59U | 0.126
C3A A61G | 0.186
C3A A64U | 0.249
C3A A71G | 0.715
C3A C4A | 0.204
C3A C6G | 0.455
C3A C10G | 0.631
C3A C16A | 0.677
C3A C18G | 0.602
C3A C37U | 0.543
C3A C38U | 0.416
C3A C46A | 0.219

Variant | self-cleavage
C3A C65G | 0.314
C3A G13U | 0.568
C3A G15A | 0.524
C3A G15U | 0.761
C3A G17A | 0.785
C3A G17C | 0.375
C3A G19A | 0.59
C3A G21C | 0.489
C3A G25U | 0.406
C3A G27A | 0.27
C3A G27U | 0.15
C3A G29A | 0.112
C3A G29C | 0.102
C3A G34U | 1.34
C3A G40U | 0.194
C3A G42A | 0.146
C3A G42U | 0.249
C3A G51C | 0.615
C3A G57A | 0.131
C3A G68U | 0.195
C3A U8A | 0.547
C3A U14A | 0.525
C3A U14C | 0.677
C3A U20C | 0.728

Variant | self-cleavage
C3A U52G | 0.538
C3A U53A | 0.662
C3A U53C | 0.664
C3A U55C | 0.261
C3A U55G | 0.193
C3A U60A | 0.515
C3A U63A | 0.0798
C3A U70A | 0.377
C3A U70C | 0.675
C3A U70G | 0.708
C3G A11C | 0.137
C3G A11G | 0.18
C3G A22U | 0.246
C3G A23G | 0.126
C3G A23U | 0.28
C3G A26C | 0.276
C3G A35C | 0.36
C3G A36G | 0.255
C3G A39G | 0.108
C3G A39U | 0.114
C3G A41G | 0.193
C3G A44G | 0.15
C3G A45U | 0.122
C3G A47U | 0.0452

Variant | self-cleavage
C3G A49C | 0.0939
C3G A49U | 0.188
C3G A64C | 0.129
C3G A64G | 0.126
C3G A71G | 0.308
C3G C4A | 0.185
C3G C6A | 0.267
C3G C10G | 0.182
C3G C12A | 0.254
C3G C12U | 0.26
C3G C16A | 0.324
C3G C37A | 0.162
C3G C46G | 0.0681
C3G C48A | 0.0662
C3G C48G | 0.196
C3G C50G | 0.127
C3G C65A | 0.263
C3G C65U | 0.0576
C3G C66G | 0.0857
C3G G15U | 0.29
C3G G17C | 0.198
C3G G19A | 0.2
C3G G19C | 0.229
C3G G19U | 0.26

Variant | self-cleavage
C3G G21A | 0.173
C3G G21C | 0.154
C3G G27A | 0.266
C3G G27C | 0.0838
C3G G32A | 0.0849
C3G G34A | 0.27
C3G G34U | 1.01
C3G G42A | 0.0837
C3G G51U | 0.342
C3G G68U | 0.102
C3G G69C | 0.177
C3G U7A | 0.321
C3G U8G | 0.204
C3G U9A | 0.112
C3G U14G | 0.145
C3G U20A | 0.222
C3G U52G | 0.212
C3G U53A | 0.212
C3G U55A | 0.0814
C3G U60C | 0.314
C3G U62A | 0.107
C3G U62G | 0.128
C3G U63C | 0.164
C3G U67C | 0.104

Variant | self-cleavage
C3G U67G | 0.102
C3G U70A | 0.252
C3U A11C | 0.402
C3U A11G | 0.338
C3U A22U | 0.395
C3U A23C | 0.408
C3U A26C | 0.314
C3U A30G | 0.104
C3U A30U | 0.0886
C3U A31C | 0.267
C3U A31G | 0.296
C3U A36C | 0.369
C3U A39C | 0.199
C3U A39G | 0.122
C3U A39U | 0.253
C3U A41C | 0.983
C3U A41G | 0.643
C3U A43U | 0.207
C3U A44C | 0.0442
C3U A45U | 0.159
C3U A49C | 0.112
C3U A49G | 0.409
C3U A59G | 0.0802
C3U A61C | 0.164

Variant | self-cleavage
C3U A61G | 0.117
C3U A61U | 0.227
C3U A64G | 0.212
C3U C4A | 0.0854
C3U C4U | 0.39
C3U C6G | 0.288
C3U C12A | 0.546
C3U C12G | 0.471
C3U C16U | 0.628
C3U C37A | 0.315
C3U C37G | 0.262
C3U C38G | 0.201
C3U C48G | 0.159
C3U C48U | 0.172
C3U C65G | 0.153
C3U C66G | 0.0901
C3U G13U | 0.429
C3U G17U | 0.473
C3U G21C | 0.32
C3U G21U | 0.472
C3U G25A | 0.205
C3U G25U | 0.187
C3U G32A | 0.08
